Here are results for one molecule from US10765616B2, “Oral formulation of polyglucosamine derivatives in combination with a non-fermentable sugar” (SYNEDGEN, INC., priority 2013, dated 2020).

Data set [1] concerns S. mutans biofilms. The data set is described as follows: MBEC peg biofilm biomass reduction assay of active ingredients (twice daily, OD595). Format: cell-based, Streptococcus mutans. To be noted: 2 minutes, 8-hour interval, 32 μg/mL PAAG, 1.5% hydrogen peroxide, alcohol, lactoferrin, chlorhexidine. On the procedure: The S. mutans biofilms were grown according to MBEC™ for High-throughput Screening methods (Innovotech) on a hydroxyapatite-coated peg lid placed in trough containing BHI media supplemented with 1% sucrose rocking for 72 hours. The pegs were treated twice daily with PAAG (30% functionalized, 86 kD) active ingredients (FIG. 9) at 8-hour intervals for 2-minutes. The biofilms were rinsed in PBS, and the pegs were removed and placed into 200 μl 95% ethanol each for 2 minutes to fix the biofilms. The MBEC-HTP biofilms were stained with 150 μl of 3% Crystal Violet dye each for 2 minutes, and rinsed five times with PBS. It was noted that chlorhexidine appears to “fix” the biofilm to the pegs. The bacteria may or may not be viable because OD measured biofilm biomass, not viable CFUs. The stained and rinsed MBEC-HTP biofilms were then placed in 150 μL ethanol for 1-minute to remove the dye/biofilm. Then 100 μL of the ethanol and dyed biofilm suspension was placed into a 96-well plate and the OD595 was measured to quantify the remaining stained biofilm biomass.

A further data set deals with A431 epithelial cells. The procedure:
Human epithelial cell monolayers of A431 (ATCC CRL-1555) were seeded in tissue culture treated 96-well plates at a density of 2×10^4 cells/well in DMEM media supplemented with 10% FBS, 1% Penicillin-Streptomycin, and 1% Amphotericin B. Seeded cells were incubated at 37° C. with 5% CO2 for 48 hours. The media was removed and replaced with serum-free, antimicrobial-free media and rinsed one time for 30 seconds with PAAG Oral Formulation H, other oral products (Biotene, Corsodyl, Peroxyl, or Listerine), 32 μg/mL PAAG (30% functionalized, 86 kDa) and other active ingredients (0.029% lactoferrin, 0.2% chlorhexidine gluconate, 1.5% hydrogen peroxide, or 20% alcohol). Epithelial cell viability was determined by ATPLite Luminescence ATP Detection Assay System (PerkinElmer). Testing was done in duplicate.
Epithelial cell viability was compared between PAAG and other oral active ingredients and oral rinse products. Human epithelial cell monolayers were rinsed once for 30 seconds with each treatment. Following treatment, the epithelial cells were evaluated with ATP LITE Luminecence assay that measured viability via ATP. The data was normalized to untreated cells to compare percent survival (FIG. 4). […] Epithelial cell viability was determined by ATPLite Luminescence ATP Detection Assay System (Perkin Elmer) and compared to media rinsed cells.

In data set [2] the test system is S. mutans biofilms. In words: Comparative biofilm reduction study of oral rinses and active ingredients (MBEC pegs). In kind it is cell-based, Streptococcus mutans. To be noted: 72 h S. mutans biofilms, treated 2 minutes twice (6-hour interval), vs water control, active ingredients at the concentration printed in the row or sentence. On the procedure:
Biofilms of S. mutans were grown on hydroxyapatite-coated pegs according to MBEC Assay™ methods for 72 hours, and then treated with the oral rinses or a water control. The corresponding active ingredients were also evaluated. The biofilms were exposed for 2-minutes, twice in a 6-hour interval to evaluate biofilm removal. Following treatment, biofilms were rinsed, fixed, and stained with 0.4% Crystal Violet, and remaining biofilm was quantitated via CFU or OD595 (Beenken and Smeltzer, 2003). Biofilms were analyzed in triplicate in at least 3 independent assays. Ratios were averaged from all assays and the percent biofilm reduced and standard error compared to water control is shown.

B1: lactoferrin (protein, UniProt P02788 20-710, looked up)
Lactotransferrin: GRRRSVQWCAVSQPEATKCFQWQRNMRKVRGPPVSCIKRDSPIQCIQAIAENRADAVTLDGGFIYEAGLAPYKLRPVAAEVYGTERQPRTHYYAVAVVKKGGSFQLNELQGLKSCHTGLRRTAGWNVPIGTLRPFLNWTGPPEPIEAAVARFFSASCVPGADKGQFPNLCRLCAGTGENKCAFSSQEPYFSYSGAFKCLRDGAGDVAFIRESTVFEDLSDEAERDEYELLCPDNTRKPVDKFKDCHLARVPSHAVVARSVNGKEDAIWNLLRQAQEKFGKDKSPKFQLFGSPSGQKDLLFKDSAIGFSRVPPRIDSGLYLGSGYFTAIQNLRKSEEEVAARRARVVWCAVGEQELRKCNQWSGLSEGSVTCSSASTTEDCIALVLKGEADAMSLDGGYVYTAGKCGLVPVLAENYKSQQSSDPDPNCVDRPVEGYLAVAVVRRSDTSLTWNSVKGKKSCHTAVDRTAGWNIPMGLLFNQTGSCKFDEYFSQSCAPGSDPRSNLCALCIGDEQGENKCVPNSNERYYGYTGAFRCLAENAGDVAFVKDVTVLQNTDGNNNEAWAKDLKLADFALLCLDGKRKPVTEARSCHLAMAPNHAVVSRMDKVERLKQVLLHQQAKFGRNGSDCPDKFCLFQSETKNLLFNDNTECLARLHGKTTYEKYLGPQYVAGITNLKKCSTSPLLEACEFLRK
In the case of B1, the “reduction in S. mutans biofilm biomass compared to water control” value in the data set on S. mutans biofilms [1] is on record as “did not significantly reduce”. Further, in the data set on A431 epithelial cells, the epithelial cell viability result is given as “maintain epithelial cell viability”. Moreover, the results for the “Percent (%) Biomass Reduced” value in the data set with S. mutans biofilms [2] and in the data set with S. mutans biofilms [2] (listed as lactoferrin) were 25.6 ± 4.3% and 25.6±4.3%, respectively.
